Results taken from the supplement of paper PMC9732359.
± gives the uncertainty stated by the source.

Test: protein stability index of a GFP-peptide fusion (yeast GPS) (PSI 1-4); higher = more stable; sorted into four equal gates, so the index is relative within each strain
Procedure, shortened: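 The protein stability index of a peptide was calculated by multiplying its read frequency in each gate by that gate's number and adding the products. The peptides were tiled 17-residue stretches of yeast proteins, fused downstream of GFP on a Cherry-expressing plasmid and carried in yeast as a pooled library. Mid-log cultures in leucine-free medium were sorted into four equal gates by GFP/Cherry ratio, and each gate's plasmids were PCR-amplified and Illumina-sequenced.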

Sequence	protein stability index (doa10∆)	protein stability index (pdr5∆)	protein stability index (san1∆)	protein stability index (ubr1∆)
NHFKDTYGFSILDIVIN [FAS1]	3.41 ± 0.12	3.28 ± 0.11	3.33 ± 0.091	3.29 ± 0.088
RIQKIISKRKEELEEEF [YIL149C/MLP2]	3.13 ± 0.12	2.47 ± 0.13	3.02 ± 0.18	2.86 ± 0.13
RAVGGEVGASAALAPKI [RPL12A]	3.37 ± 0.14	3.21 ± 0.17	1.86 ± 0.18	3.2 ± 0.1
TLDNIDDINKAKAVWEN [ARP9]	3.14 ± 0.058	3.18 ± 0.062	3.29 ± 0.051	3.27 ± 0.058
IAFLVGLVNPKTVQSMT [SWI3]	2.46 ± 0.068	2.02 ± 0.059	2.11 ± 0.07	2.56 ± 0.041
SKTDNIEDPNLSSNITF [YMR153W/NUP53]	2.84 ± 0.084	2.81 ± 0.08	3 ± 0.064	3.27 ± 0.073
LLAHKVADEEANIELTW [RPC37]	1.49 ± 0.074	–	1.59 ± 0.14	1.74 ± 0.1
LNDENSDDYDNEGAASS [SMC1]	3.39 ± 0.25	–	–	–
ACGAFININEFALPAGS [CDC53]	2.36 ± 0.096	2.53 ± 0.091	1.99 ± 0.12	1.87 ± 0.074
NSAQNNSTTSGGLFGNK [YGR119C/NUP57]	3.25 ± 0.13	2.91 ± 0.13	3.2 ± 0.073	3.24 ± 0.17
IRAIRKVISEILTREVQ [RPS1B]	1.92 ± 0.07	1.65 ± 0.05	1.25 ± 0.08	1.67 ± 0.14
TYEIICDQTKSVPLMIN [RRP43]	1.66 ± 0.073	2.3 ± 0.11	1.49 ± 0.11	1.55 ± 0.069
GKGPGCGFWQPAWRVWL [PRP8]	2.58 ± 0.19	–	–	2.1 ± 0.19
EQFPFYLHDNASKVLLK [IRR1]	2.45 ± 0.081	2.47 ± 0.065	1.91 ± 0.075	2.41 ± 0.052
FAEYIQANIQLYSIRED [PRE1]	2.39 ± 0.1	2.67 ± 0.091	2.49 ± 0.068	2.59 ± 0.091
EQSKEVGDVVGGALDNP [BRN1]	3.29 ± 0.091	3.54 ± 0.078	3.44 ± 0.057	3.38 ± 0.058
VLYHTSGAITFVNETPR [PRP8]	2.06 ± 0.06	2.24 ± 0.075	2.43 ± 0.068	1.53 ± 0.04
HLLPRNEWIKAQEDVPY [QCR7]	2.31 ± 0.072	1.68 ± 0.086	2.17 ± 0.089	1.88 ± 0.046
TATIINNESSDDMDIDE [PCI8]	3.1 ± 0.097	3.17 ± 0.07	3.02 ± 0.095	3.31 ± 0.056
FSNVNELQEKNVELLNC [YIL149C/MLP2]	3.09 ± 0.082	3.29 ± 0.13	3.06 ± 0.083	3.1 ± 0.075
DVNSASKSESDSQIVTP [RRP4]	3.17 ± 0.088	3.28 ± 0.073	3.06 ± 0.099	2.78 ± 0.1
AEMEADSLASELTLAEQ [SMC4]	–	–	2.94 ± 0.15	3.39 ± 0.26
LFGNNAGNTTTGGGLFG [YGL172W/NUP49]	2.95 ± 0.18	3.37 ± 0.25	–	3.36 ± 0.17
NRSAYDSKNTPNVFDKD [YDL088C/ASM4]	2.41 ± 0.1	2.72 ± 0.075	2.9 ± 0.074	2.92 ± 0.091
QLLLLSDERAKLELINR [LRP1]	2.93 ± 0.092	3.06 ± 0.18	2.99 ± 0.11	2.99 ± 0.18
EKFPNDVKLLNPIDIKR [RPP1]	2.91 ± 0.062	2.97 ± 0.041	3.14 ± 0.038	3.01 ± 0.039
KNREVVQVSKAGGLPMD [RRP45]	3.04 ± 0.11	2.84 ± 0.097	2.54 ± 0.095	3.28 ± 0.067

Sequence	protein stability index (doa10∆)	protein stability index (pdr5∆)	protein stability index (san1∆)	protein stability index (ubr1∆)
EIPETGEYSVKLLKGAT [FAS2]	3.18 ± 0.12	3.46 ± 0.089	3.32 ± 0.049	3.35 ± 0.078
HDWLNALDGDLIELLEK [YCG1]	–	3.32 ± 0.2	2.75 ± 0.24	3.55 ± 0.11
IIRLLPINLENNDGSYG [SRB8]	1.7 ± 0.064	1.24 ± 0.048	1.21 ± 0.077	1.39 ± 0.048
VRTDTTYPAGFMDVITL [RPS4A]	2.37 ± 0.11	2.57 ± 0.1	2.92 ± 0.1	2.78 ± 0.098
YRAFGSIWQVKDQLPDL [MED7]	3.08 ± 0.13	3.17 ± 0.086	2.94 ± 0.09	3.29 ± 0.083
TLKYICAECSSKLSLSR [RPC10]	2.46 ± 0.063	2.51 ± 0.069	2.7 ± 0.057	2.65 ± 0.056
SAILLSETDKRQFLHEL [RPO31]	2.6 ± 0.069	2.49 ± 0.051	2.88 ± 0.087	2.63 ± 0.052
KRKLLEHRRYDDQLKQR [RPT4]	2.04 ± 0.27	2.1 ± 0.22	1.42 ± 0.23	1.92 ± 0.17
AVGAHSDLLKVLKSKKL [RPL4A]	3.13 ± 0.14	3.14 ± 0.13	2.61 ± 0.16	2.82 ± 0.062
LDMELAELDPSLRTPIA [SEC65]	3.34 ± 0.14	3.26 ± 0.092	3.08 ± 0.081	3.06 ± 0.076
GKVVKNVLLLDSNGDFN [RRP46]	3.35 ± 0.068	3.22 ± 0.058	3.29 ± 0.063	3.27 ± 0.043
TNKENNIVDSSAAGNKA [YIL149C/MLP2]	2.18 ± 0.061	2.44 ± 0.057	2.87 ± 0.041	2.92 ± 0.036
CFVHRYKDVSDLIRSES [IRR1]	2.67 ± 0.082	2.7 ± 0.061	2.89 ± 0.056	2.89 ± 0.06
AIIDKNTGLTFKKNLQV [PRE4]	3.22 ± 0.081	2.79 ± 0.076	2.79 ± 0.11	3.35 ± 0.082
NDFFIIYYTPAFFHLFA [YJL039C/NUP192]	1.41 ± 0.058	1.57 ± 0.043	1.62 ± 0.073	1.58 ± 0.042
QEGIEAIATTVIAHLTV [RET1]	1.86 ± 0.057	1.93 ± 0.05	1.84 ± 0.059	2.01 ± 0.033
QKLMQLVVLTDVVERLH [RGR1]	2.29 ± 0.072	2.38 ± 0.049	2.23 ± 0.091	2.3 ± 0.035
NSLTKYPDLKAFHNNLK [MED1]	2.9 ± 0.11	3.16 ± 0.089	2.89 ± 0.092	2.93 ± 0.062
NECVCTPYNADFDGDEM [RPO31]	3.06 ± 0.069	3.18 ± 0.069	3.06 ± 0.049	3.11 ± 0.09
DIGVLEEYARRLAEFKR [SMC4]	3.13 ± 0.12	3.38 ± 0.11	2.74 ± 0.096	3.35 ± 0.077
VSKADILLSHHRASPAD [POP5]	2.34 ± 0.15	3.26 ± 0.16	3.18 ± 0.054	2.91 ± 0.1
HRQEIFKDSPMDLFMST [GAL11]	2.85 ± 0.089	2.98 ± 0.059	3.23 ± 0.073	2.87 ± 0.076
VSPTNVMGTPLTNMMSP [PGD1]	2.77 ± 0.1	–	2.92 ± 0.091	3.26 ± 0.093
KPAEKNNNETSKPAFSF [YJL041W/NSP1]	1.65 ± 0.15	1.98 ± 0.06	2.24 ± 0.16	1.64 ± 0.11
SNDIIDKPYLLRIVTHL [YDL116W/NUP84]	1.93 ± 0.11	1.99 ± 0.09	3.09 ± 0.15	1.93 ± 0.076
LEKKFQDRHVIFLAERR [RPS7A]	2.53 ± 0.23	2.9 ± 0.12	2.86 ± 0.27	2.71 ± 0.11
